Measurements reported in IntAct's records for PubMed 10913138.

B1: Protein S100-B (Homo sapiens), P04271 (parent)
chain: MSELEKAMVALIDVFHQYSGREGDKHKLKKSELKELINNELSHFLEEIKEQEVVDKVMETLDNDGDGECDFQEFMAFVAMVTTACHEFFEHE
partner: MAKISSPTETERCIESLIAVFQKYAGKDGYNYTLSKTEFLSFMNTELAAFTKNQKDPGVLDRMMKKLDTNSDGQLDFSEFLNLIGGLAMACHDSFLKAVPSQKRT
B2: Protein S100-B (Homo sapiens), P04271 (parent)
chain: B1 chain

Variants of: B1
Settings: with S100A11, P31949

| effect of a mutation on the interaction | Variant |
| --- | --- |
| decreasing interaction | MSELEKAMVALIDVFHQYSGREGDKHKLKKSELKELINNELSHFLEEIKEQEVVDKVMETLDNDGDGECDFQEFMAFVAMVTTACHEFAEHE [F89A] |

Variants of: B2
Settings: with S100A6, P06703

| effect of a mutation on the interaction | Variant |
| --- | --- |
| decreasing interaction | MSELEKAMVALIDVFHQYSGREGDKHKLKKSELKELINNELSHFLEEIKEQEVVDKVMETLDNDGDGECDFQEFMAFVAMVTTACHEFAEHE [F89A] |

Variants of: B2
Settings: with S100A6, P06703
Remark: another data set of the same source

| effect of a mutation on the interaction | Variant |
| --- | --- |
| decreasing interaction | MSELEKAMVALIDVFHQYSGREGDKHKLKKSELKELINNELSHFLEEIKEQEVVDKVMETLDNDGDGECDFQEFMAFVAMVTTACHEAFEHE [F88A] |
